Laboratory results from patent US20040209310A1 (published 2004).

Target: T1, myc-tagged Mindin (pcDNA-His/myc-Mindin) (human, UniProt Q9BUD6 27-331)
T1 construct: mature; not shown: His/myc tag of vector pcDNA4-His/myc A
T1 sequence (looked up): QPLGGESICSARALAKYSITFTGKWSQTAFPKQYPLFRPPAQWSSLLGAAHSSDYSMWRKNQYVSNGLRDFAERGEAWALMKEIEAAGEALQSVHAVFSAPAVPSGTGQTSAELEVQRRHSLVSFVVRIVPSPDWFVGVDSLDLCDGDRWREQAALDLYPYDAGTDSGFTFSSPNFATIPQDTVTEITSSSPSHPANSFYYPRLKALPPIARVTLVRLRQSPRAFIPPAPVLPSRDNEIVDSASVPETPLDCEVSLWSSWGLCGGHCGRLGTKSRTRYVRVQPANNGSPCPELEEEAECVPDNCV
Experiment: pulldown of myc-tagged Mindin with immobilized GST-CAPPD
Protocol: Affinity chromatography on immobilized GST- or Ig-fusion proteins. These studies were performed essentially as described (Ichtchenko et al., 1995, Cell 81:435-443; Hata et al., Nature 366:347-351). Brain membrane extract was precleared by incubation (2 h at 4° C.) with glutathione agarose and incubated overnight at 4° C. with immobilized GST-CAPPD on glutathione agarose beads preequilibrated with buffer B. Beads were washed with buffer B and serially eluted with 2 ml of buffer B containing 0.3 M NaCl, 0.5 M NaCl, 1.0 M NaCl, or 1.0 M NaCl, 10 mM EGTA, and 5 mM EDTA (instead of 2 mM CaCl2). Eluted proteins were analyzed by SDS-PAGE and Coomassie blue staining. Bound proteins were identified by liquid chromatography/mass spectroscopy of tryptic fragments. For pulldown assays, the medium from COS cells transfected with pcDNA4-His/myc-F spondin or pcDNA-His/myc-Mindin (collected 48-72 h post transfection) was adjusted to (final concentrations) 10 mM HEPES-NaOH pH 7.4, 1 mM EGTA, 1% Triton X-100, proteinase inhibitors were added, and the supernatant was precleared with immobilized GST orIg-C. The treated medium was then incubated overnight at 4° C. with GST or GST-CAPPD immobilized on glutathione agarose or with various Ig-APP fusion proteins immobilized on protein-A Sepharose. […]

binding result: no binding
B1: GST-CAPPD fusion protein (pGEX-CAPPD, APP695 residues 286-557) (other, human, UniProt P05067-4 286-557, looked up)
chain: VVRVPTTAASTPDAVDKYLETPGDENEHAHFQKAKERLEAKHRERMSQVMREWEEAERQAKNLPKADKKAVIQHFQEKVESLEQEAANERQQLVETHMARVEAMLNDRRRLALENYITALQAVPPRPRHVFNMLKKYVRAEQKDRQHTLKHFEHVRMVDPKKAAQIRSQVMTHLRVIYERMNQSLSLLYNVPAVAEEIQDEVDELLQKEQNYSDDVLANMISEPRISYGNDALMPSLTETKTTVELLPVNGEFSLDDLQPWHSFGADSVPAN
notes: range 286-557; Expressed in bacteria and immobilized on glutathione agarose/Sepharose; also called CAPPD-GST fusion protein; central APP domain; not shown: glutathione S-transferase of vector pGEX-KG
